From PMC4919432

Experiments:
[1] = biological target: Mec1·Ddc2 complex (yeast (budding yeast)) (UniProt P38111); assay: negative stain electron microscopy, single-particle reconstruction; 70 nM Mec1·Ddc2 in 30 mM HEPES pH 7.4, 200 mM NaCl, 5% glycerol, 0.5 mM EDTA, 1 mM DTT; 2% uranyl acetate; C2 symmetry applied; 22.5 Å
[2] = biological target: Mec1·Ddc2 complex (yeast (budding yeast)) (UniProt P38111); assay: SEC; Mec1·Ddc2 on Superose 6 HR 10/30, 0.3 ml/min; 50 mM HEPES-KOH pH 7.4, 200 mM KCl, 10% glycerol, 0.1% Tween 20, 0.01% Nonidet P-40, 1 mM EDTA, 1 mM EGTA, 2 mM DTT; size against Bio-Rad gel filtration standards; peak fractions on SDS-PAGE
[3] = biological target: Tel1 (yeast (budding yeast)) (UniProt P38110); assay: SEC; Tel1 on Superose 6 Increase 5/150 GL, 0.1 ml/min; 50 mM HEPES-KOH pH 7.4, 200 mM KCl, 10% glycerol, 0.1% Tween 20, 0.02% C12E10, 1 mM EDTA, 3 mM DTT; size against Bio-Rad gel filtration standards
[4] = biological target: Tel1 (yeast (budding yeast)) (UniProt P38110); assay: cryo-EM structure; 20 nM Tel1 in 50 mM HEPES-KOH pH 7.4, 210 mM KCl, 1% glycerol, 0.02% Tween 20, 0.002% Nonidet P-40, 1 mM EDTA, 0.5 mM EGTA, 1 mM DTT, 0.5 mM MgCl2; holey carbon grids with a thin carbon layer; 19.2 Å
[5] = biological target: Tel1 (yeast (budding yeast)) (UniProt P38110); assay: negative stain electron microscopy, single-particle reconstruction; 20 nM Tel1 in 50 mM HEPES pH 7.4, 150 mM NaCl, 5% glycerol, 1 mM EDTA, 1 mM DTT; 2% uranyl acetate; C2 symmetry applied; 21 Å (FSC 0.5)

Substance: Mec1·Ddc2 complex, P38111 1-2368; Q04377 1-747
- percent of particles of the size of the dimer [1]: 81%
- stoichiometry N [1]: 2
- stoichiometry N [2]: 2

Substance: Tel1, P38110 1-2787
- stoichiometry N [3]: 2
- stoichiometry N [4]: 2
- stoichiometry N [5]: 2
